From PMC6506404

Assays:
Test in all cases: cryo-EM structure
[1] = molecular target: BMC-T^D3 shell protein of the Haliangium ochraceum (HO) BMC shell (Haliangium ochraceum) (UniProt D0LV02)
[2] = molecular target: BMC-T^D2 shell protein of the Haliangium ochraceum (HO) BMC shell (Haliangium ochraceum) (UniProt D0LID6)
[3] = molecular target: BMC-T^S1 shell protein of the Haliangium ochraceum (HO) BMC shell (Haliangium ochraceum)

Substance: BMC-T^D3 shell protein of the Haliangium ochraceum (HO) BMC shell (from UniProt D0LV02 1-206) (natural protein)
- stoichiometry N [1]: 6

Substance: BMC-T^D2 shell protein of the Haliangium ochraceum (HO) BMC shell (from UniProt D0LID6 1-212) (natural protein)
- stoichiometry N [2]: 6

Substance: BMC-T^S1 shell protein of the Haliangium ochraceum (HO) BMC shell (natural protein)
- stoichiometry N [3]: 3
